Tested on: MS2 coat protein
Test: apparent KD of MS2 coat protein; designed switch direction (-1 OFF switch, 1 ON switch): -1; higher = weaker reporter binding
Summary of the method: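 The apparent KD reported per design is the median over clusters of curve fits to normalised cluster fluorescence. The RNA switches were transcribed on Illumina chips by stalled E. coli RNA polymerase. SNAP-549-labelled MS2 coat protein was titrated from 0.7 or 1.5 nM, doubling up to 3 µM, in Tris-HCl pH 7.5 buffer containing KCl, MgCl2, BSA, DTT, tRNA and Tween-20, with no input, 200 uM small-molecule ligand, or an oligonucleotide input.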

[1] = input ligand: microRNA oligo, concentration not stated
[2] = Eterna round: R95, input ligand: FMN 200 uM
[3] = Eterna round: R95, input ligand: microRNA oligo, concentration not stated
[4] = Eterna round: R95, input ligand: none

Sequence	apparent KD of MS2 coat protein (input ligand: FMN 200 uM) [nM]	apparent KD of MS2 coat protein [1] [nM]	apparent KD of MS2 coat protein (input ligand: none) [nM]	apparent KD of MS2 coat protein [2] [nM]	apparent KD of MS2 coat protein [3] [nM]	apparent KD of MS2 coat protein [4] [nM]
UUGGAUAAUGUAGGAUAUGCAAGGCGAACCUAAGCAGAAGGACAUGAGGAUCACCCAUGUAAUGCGGUCUGCGUACAGAUCGCA [12th something] (Eterna round: R96, puzzle: Exclusion NG 1)	79	29	22.1	–	–	–
UUGGCAGGUUUUUUGUUUGACAUGAGGAUCACCCAUGUUGCGUGGGUUGUGGGUGGGCGGUGUUUAUUUAUGGUUCU [-16.5, -38.6 kcal, A 12%] (Eterna round: R97, puzzle: Sensor, turn-off variant 1)	43.1	–	48.4	–	–	–
UUGGCAGGUUUUUUGUUUGACAUGAGGAUCACCCAUGUUGCGUGGGUUGUGUGUGUGCGGUGUAUAUAUAUGGUUCU [-19.3, -40.7 kcal, A 14%] (Eterna round: R97, puzzle: Sensor, turn-off variant 1)	203	–	364	–	–	–
UUGGUACUGGUAGGAUAUCCGUUGGAAACCGUCGGAGAAGGACCACAGUCACUGGGUCUUUGUCAAGUGGAGUGGAAGAACCAU [pwkr exNG1 F6.24] (Eterna round: R96, puzzle: Exclusion NG 1)	224	221	227	–	–	–
UUGUAGCAGGCCUUCGAGUACAUGAGGAUCACCCAUGUCGUGCCUGAAAUCUCAGAGACAGGUGGCUCGUCUUAGGC [Eternabot (L1) Solution 32] (Eterna round: R97, puzzle: Sensor, turn-off variant 1)	21.2	–	16.9	–	–	–
UUGUCGGCAGGAUAUACAUGAGGAUCACCCAUGUAAAUUUUUCGUUUAACUUGAAUGUGUAGAAGGGCCAUGUA [Ex3 #70] (Eterna round: R97, puzzle: Exclusion 3)	28.2	–	25.2	–	–	–
UUGUCGUGUGUAGGAUAUCGUUGGCGUUCGCCGCGAGAAGGACAUGAGGAUCACCCAUGUGCGUCAGGGUCGUCCACAGGUGAU [-27/-25 Kcal and A 19%] (Eterna round: R96, puzzle: Exclusion NG 1)	663	281	371	–	–	–
UUGUGCACGCUGCGGUCCUACAUGAGGAUCACCCAUGUGGUCUGGUGGCGUGGGUCGCCGGACUUGGCUCGUCUUGG [salish99_S_TOV1_R5_026] (Eterna round: R97, puzzle: Sensor, turn-off variant 1)	16.9	–	16.9	–	–	–
UUGUGGGUACGAAGGUGUAGUUUGAGCGUACGUUCUGUAACAUGAGGAUCACCCAUGUCGCUUUUUGCUCGUCUUAU [JR_SV3TOV2_Sub036] (puzzle: Sensor v3, turn-off variant 2)	–	–	–	24.7	68.2	24.8
UUGUUACAUGAGGAUCACCCAUGUGAGGAUAUGGUUCAGUAAUGUAAUGUAAAGUAAUCCAGAAGGCACAUGUU [1st #26] (Eterna round: R97, puzzle: Exclusion 1)	1290	–	756	–	–	–
UUGUUAUAUGUAGGAUAUGCGUGUUAUUGUUAGGCAGAAGGACAUGAGGAUCACCCAUGUAUGUUGUUGUUAUAUAUUAUAUAU [Title] (Eterna round: R96, puzzle: Exclusion NG 1)	41.9	21.2	34.4	–	–	–
UUGUUCCAUUAUGAGAUCCACAUGAGGAUCACCCAUGUAGGAGUAACAAGCUUUGCUCGAUCUAUUUCAUGCUUCUG [Eternabot (L1) Solution 40] (Eterna round: R97, puzzle: Sensor, turn-off variant 1)	65.8	–	80.6	–	–	–
UUGUUCCGUGUAGGAUAUUGGCCUUCCUCGGGCCGAGAAGGACAUGAGGAUCACCCAUGUAUGCUAUUAUCGCGCGUGGCGCAC [Design 95] (Eterna round: R96, puzzle: Exclusion NG 1)	279	22.4	39.9	–	–	–
UUGUUCGAGCGGAGUUCUCACAUGAGGAUCACCCAUGUGCUCGUCUUGUGUGGUUCUGUGGCGUGGUUCGCGGUGCC [Sensor, turn-off variant 1] (Eterna round: R97, puzzle: Sensor, turn-off variant 1)	237	–	292	–	–	–
UUGUUGUAUGUAGGAUAUGCAUAUUAUUAUUAUGCAGAAGGACAUGAGGAUCACCCAUGUAUAUUAUUAUUAUAUAUUAUAUAU [Title] (Eterna round: R96, puzzle: Exclusion NG 1)	–	23.5	–	–	–	–
UUGUUGUAUGUAGGAUAUGCAUAUUAUUAUUAUGCAGAAGGACAUGAGGAUCACCCAUGUAUAUUAUUAUUAUAUGUUAUAUAU [Title] (Eterna round: R96, puzzle: Exclusion NG 1)	–	20	–	–	–	–
UUGUUGUAUGUAGGAUAUGCAUAUUAUUAUUAUGCAGAAGGACAUGAGGAUCACCCAUGUAUGUUAUUAUUAUAUGUUAUAUAU [Title] (Eterna round: R96, puzzle: Exclusion NG 1)	–	21.3	–	–	–	–
UUGUUGUAUGUAGGAUAUGCGUGUUAUUAUUAUGCAGAAGGACAUGAGGAUCACCCAUGUGUAUUAUUAUUAUAUAUUAUAUAU [Title] (Eterna round: R96, puzzle: Exclusion NG 1)	–	14.1	–	–	–	–
UUGUUGUGUGUAGGAUAUGCGUGUUAUUAUUAUGCAGAAGGACAUGAGGAUCACCCAUGUGUAUUGUUAUUAUAUAUUAUAUAU [Title] (Eterna round: R96, puzzle: Exclusion NG 1)	–	15.6	–	–	–	–
UUGUUUUUCACAGGAUAUCGCCUCUUAUUACAUGAGGAUCACCCAUGUUUAUUUUGUUACAUGUUCGAGAAGGGUGUAGUCUUU [JR_ExcNG2_Sub047] (Eterna round: R96, puzzle: Exclusion NG 2)	586	368	475	–	–	–
UUUAAAACAUAGGAUAUCGAAAUAAUCAUUUAACGAGAAGGAUGAACAUGAGGAUCACCCAUGUGGUAUCAUGG [Mat - Exclusion 6 - JL Mod - D18] (puzzle: Exclusion 6)	–	–	–	364	230	409
UUUAAACAUGAGGAUCACCCAUGUUAGGAUAUACGCAUGCAGACACACACGGAUGCAAGUAGAAGGAACCAUGC [Design #7] (Eterna round: R97, puzzle: Exclusion 1)	23.6	–	22.9	–	–	–
UUUAACAAGCCAGAUCCUAACAUGAGGAUCACCCAUGUGCUCGUCUGAUUUUGUACUAUCAUGUGAGUGAUAGUAUU [Level Boss var2-04] (puzzle: Sensor v3, turn-off variant 1)	–	–	–	174	683	308
UUUAACAAGCCAGAUCCUCACAUGAGGAUCACCCAUGUGCUCGUCUGAUUUUGUACUAUCAUGUGAGUGAUAGUAUU [Level Boss var2-05] (Eterna round: R96, puzzle: Sensor v3, turn-off variant 1)	360	39.1	300	–	–	–
UUUAACAAGCCAGAUCCUCACAUGAGGAUCACCCAUGUGCUCGUCUGAUUUUGUACUAUCAUGUGAGUGAUAGUAUU [Level Boss var2-05] (puzzle: Sensor v3, turn-off variant 1)	–	–	–	165	15.2	181
UUUAACAAGCCAGAUCCUCACAUGAGGAUCACCCAUGUGCUCGUCUGUUUUUGUACUAUCACGUUUGUGAUAGUGUU [Level Boss var2-08] (puzzle: Sensor v3, turn-off variant 1)	–	–	–	220	16.2	295
UUUAAGGUAAUUAAGAUCACAUGAGGAUCACCCAUGUAUAUAUAGGAUAUCAGCUCGUGUAGAGCUGAGAAGGAUAUAUACAUA [ExNG3/6-C3] (Eterna round: R96, puzzle: Exclusion NG 3)	24.9	48.3	542	–	–	–
UUUAAUUUAAUUAAGAUCACAUGAGGAUCACCCAUGUAAUUAUAGGAUAUCAGCUCGAAUAGAGCUGAGAAGGAUAAUUACAUA [ExNG3/5-A4] (Eterna round: R96, puzzle: Exclusion NG 3)	–	67.6	–	–	–	–
UUUAAUUUAAUUAAGAUCACAUGAGGAUCACCCAUGUAUAUAUAGGAUAUCAGCUCGAAUAGAGCUGAGAAGGAUAUAUACAUA [ExNG3/4-A4] (Eterna round: R96, puzzle: Exclusion NG 3)	–	39.4	–	–	–	–
UUUAAUUUUUUUUUUUUACAAGCUUUUUGCUCGUCUUAUACAUGAGGAUCACCCAUGUAAAUGGGAAAUGAAUUAUC [JMF 95] (puzzle: Sensor v3, turn-off variant 2)	–	–	–	322	447	188

Source: the supplement of paper PMC9170038
